# Test results from patent US20260152527A1 (SIGHTSTREAM BIOTHERAPEUTICS, published 2026).
# Starred links: 1 amine or outer side, 2 acyl side, 3 side chain; linkers in the order of their positions; H or OH if unused. Positions of bridges follow the written chain, without caps; N, C: chain ends. Non-standard residues stand in square brackets, D forms with d. *: point of attachment. HyPA = 3,5-dihydroxyphenylacetic acid (N-terminal cap), O=C(Cc1cc(O)cc(O)c1)*; MoPA = (3-methoxyphenyl)acetic acid (N-terminal cap), COc1cccc(CC(=O)*)c1; dTyr(Me) = O-methyl-D-tyrosine, COc1ccc(C[C@@H](N[*:1])C(=O)[*:2])cc1; Phe(OCH3) = O-methyl-tyrosine, COc1ccc(C[C@H](N[*:1])C(=O)[*:2])cc1; Hgln = homoglutamine, NC(=O)CCC[C@H](N[*:1])C(=O)[*:2]; dPhe(4-CF3) = N[C@H](Cc1ccc(C(F)(F)F)cc1)C(=O)O; Trp(1-Me) = Cn1cc(C[C@H](N)C(=O)O)c2ccccc21; Benzoyl(3,5-(OH)2) = O=C(c1cc(O)cc(O)c1)*; NMeW = CN[C@@H](Cc1c[nH]c2ccccc12)C(=O)O; Lys(N3) = [N-]=[N+]=NCCCC[C@H](N)C(=O)O; Phe(4-NH2) = Nc1ccc(C[C@H](N)C(=O)O)cc1; Orn(N3) = [N-]=[N+]=NCCC[C@H](N)C(=O)O; NMeH = CN[C@@H](Cc1c[nH]cn1)C(=O)O; NMeR = CN[C@@H](CCCNC(=N)N)C(=O)O; hArg = N=C(N)NCCCC[C@H](N)C(=O)O; Hpra = C#CCC[C@H](N)C(=O)O; dPra = C#CC[C@@H](N)C(=O)O; Nle = CCCC[C@H](N)C(=O)O; Pra = C#CC[C@H](N)C(=O)O
# B1: KR-057 (peptide)
# peptide: Ac-[Nle][Lys(N3)]H[dF]RW[Pra][Hgln]-NH2
# modifications: triazole 2-7; not fully specified; printed as Ac-Nle-[Lys(N3)-His-DPhe-Arg-Trp-Pra]-Hgln-NH2
# B2: KR-046 (peptide)
# peptide: Ac-[Nle][Lys(N3)]H[dF]R[NMeW][Pra]-NH2
# modifications: triazole 2-7
# B3: KR-048 (peptide)
# peptide: Ac-[Nle][Lys(N3)]H[dPhe(4-CF3)]RW[Pra]-NH2
# modifications: triazole 2-7
# B4: KR-058 (peptide)
# peptide: Ac-[Nle][Lys(N3)]H[dTyr(Me)]RW[Pra]K-NH2
# modifications: triazole 2-7; not fully specified; printed as Ac-Nle-[Lys(N3)-His-DTyr(Me)-Arg-Trp-Pra]-Lys-NH2
# B5: KR-068 (peptide)
# peptide: Ac-[Nle][Orn(N3)]H[dF]RW[Hpra]K-NH2
# modifications: triazole 2-7; not fully specified; printed as Ac-Nle-[Orn(N3)-His-DPhe-Arg-Trp-Hpra]-Lys-NH2
# B6: KR-061 (peptide)
# peptide: Ac-[Nle][Lys(N3)][Phe(OCH3)][dF]RW[Pra]K-NH2
# modifications: triazole 2-7; not fully specified; printed as Ac-Nle-[Lys(N3)-Phe(OCH3)-DPhe-Arg-Trp-Pra]-Lys-NH2
# B7: KR-063 (peptide)
# peptide: {MoPA-MoPA}-[Nle][Lys(N3)]H[dF]RW[Pra]K-NH2
# modifications: triazole 2-7; not fully specified; printed as MoPA-MoPA-Nle-[Lys(N3)-His-DPhe-Arg-Trp-Pra]-Lys-NH2
# B8: KR-052 (peptide)
# peptide: Ac-[Nle][Lys(N3)][NMeH][dF][NMeR]W[Pra]-NH2
# modifications: triazole 2-7; not fully specified
# B9: KR-070 (peptide)
# peptide: Ac-[Nle][Lys(N3)]H[dF]RW[dPra]K-NH2
# modifications: triazole 2-7; not fully specified; printed as Ac-Nle-[Lys(N3)-His-DPhe-Arg-Trp-DPra]-Lys-NH2
# B10: KR-045 (peptide)
# peptide: Ac-[Nle][Lys(N3)]H[dF][NMeR]W[Pra]-NH2
# modifications: triazole 2-7
# B11: KR-065 (peptide)
# peptide: Ac-[Nle][Orn(N3)]H[dF]RW[Pra]K-NH2
# modifications: triazole 2-7; not fully specified; printed as Ac-Nle-[Orn(N3)-His-DPhe-Arg-Trp-Pra]-Lys-NH2
# B12: KR-051 (peptide)
# peptide: Ac-[Nle][Lys(N3)][NMeH][dF]R[NMeW][Pra]-NH2
# modifications: triazole 2-7
# B13: KR-006 (peptide)
# peptide: Ac-SYSMEHFRWGK-NH2
# B14: KR-053 (peptide)
# peptide: {Benzoyl(3,5-(OH)2)}-[Nle][Lys(N3)]H[dF]RW[Pra]K-NH2
# modifications: triazole 2-7; not fully specified; printed as HyBA-Nle-[Lys(N3)-His-DPhe-Arg-Trp-Pra]-Lys-NH2
# B15: KR-054 (peptide)
# peptide: Ac-[Nle][Lys(N3)]H[dF][hArg]W[Pra]K-NH2
# modifications: triazole 2-7; not fully specified; printed as Ac-Nle-[Lys(N3)-His-DPhe-HArg-Trp-Pra]-Lys-NH2
# B16: KR-067 (peptide)
# peptide: Ac-[Nle][Pra]H[dF]RW[Lys(N3)]K-NH2
# modifications: triazole 2-7; not fully specified; printed as Ac-Nle-[Pra-His-DPhe-Arg-Trp-Lys(N3)]-Lys-NH2
# B17: KR-056 (peptide)
# peptide: Ac-[Nle][Lys(N3)]H[dF]RW[Pra]N-NH2
# modifications: triazole 2-7; not fully specified; printed as Ac-Nle-[Lys(N3)-His-DPhe-Arg-Trp-Pra]-Asn-NH2
# B18: KR-062 (peptide)
# peptide: HyPA-[Nle][Lys(N3)]H[dF]RW[Pra]K-NH2
# modifications: triazole 2-7; not fully specified; printed as HyPA-Nle-[Lys(N3)-His-DPhe-Arg-Trp-Pra]-Lys-NH2
# B19: KR-007 (peptide)
# peptide: Ac-EHFRWGKP-NH2
# B20: KR-047 (peptide)
# peptide: Ac-[Nle][Lys(N3)][Phe(4-NH2)][dF]RW[Pra]-NH2
# modifications: triazole 2-7
# B21: KR-060 (peptide)
# peptide: Ac-[Nle][Lys(N3)]H[dF]R[Trp(1-Me)][Pra]K-NH2
# modifications: triazole 2-7; not fully specified; printed as Ac-Nle-[Lys(N3)-His-DPhe-Arg-Trp(Me)-Pra]-Lys-NH2
# B22: KR-005 (peptide)
# peptide: Ac-SYSMEHFRWGKP-NH2
# B23: KR-066 (peptide)
# peptide: Ac-[Nle][Lys(N3)]H[dF]RW[Hpra]K-NH2
# modifications: triazole 2-7; not fully specified; printed as Ac-Nle-[Lys(N3)-His-DPhe-Arg-Trp-HPra]-Lys-NH2
# B24: KR-050 (peptide)
# peptide: Ac-[Nle][Lys(N3)]H[dF][NMeR][NMeW][Pra]-NH2
# modifications: triazole 2-7
# Molecular target: human recombinant MC1R (CHO-K1 stable cell line, GenScript) (human, UniProt Q01726 1-317)
# Test: cell-based or functional assay
# Chain of human recombinant MC1R (CHO-K1 stable cell line, GenScript) (Q01726 whole entry): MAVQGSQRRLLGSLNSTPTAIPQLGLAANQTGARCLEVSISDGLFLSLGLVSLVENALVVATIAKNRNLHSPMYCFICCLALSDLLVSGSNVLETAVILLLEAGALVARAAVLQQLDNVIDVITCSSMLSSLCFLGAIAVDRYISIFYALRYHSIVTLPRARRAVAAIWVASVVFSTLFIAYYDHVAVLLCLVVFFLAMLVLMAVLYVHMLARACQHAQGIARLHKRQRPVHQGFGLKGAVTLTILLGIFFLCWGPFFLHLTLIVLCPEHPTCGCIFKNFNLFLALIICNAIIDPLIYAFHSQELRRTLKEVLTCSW
row,Binder,MC1R IC50 [nM]
1,B1,0.024
2,B2,0.28
3,B3,0.18
4,B4,2.68
5,B5,0.04
6,B6,28
7,B7,0.05
8,B8,2.68
9,B9,11.8
10,B10,0.48
11,B11,0.027
12,B12,0.043
13,B13,0.11
14,B14,0.0089
15,B15,0.093
16,B16,0.11
17,B17,0.052
18,B18,0.03
19,B19,1.99
20,B20,> 50
21,B21,0.79
22,B22,0.093
23,B23,0.0047
24,B24,0.081

# Molecular target: human recombinant MC3R (CHO-K1/Gα15 stable cell line, GenScript) (human, UniProt P41968 1-323)
# Test: cell-based or functional assay
# Chain of human recombinant MC3R (CHO-K1/Gα15 stable cell line, GenScript) (P41968 whole entry): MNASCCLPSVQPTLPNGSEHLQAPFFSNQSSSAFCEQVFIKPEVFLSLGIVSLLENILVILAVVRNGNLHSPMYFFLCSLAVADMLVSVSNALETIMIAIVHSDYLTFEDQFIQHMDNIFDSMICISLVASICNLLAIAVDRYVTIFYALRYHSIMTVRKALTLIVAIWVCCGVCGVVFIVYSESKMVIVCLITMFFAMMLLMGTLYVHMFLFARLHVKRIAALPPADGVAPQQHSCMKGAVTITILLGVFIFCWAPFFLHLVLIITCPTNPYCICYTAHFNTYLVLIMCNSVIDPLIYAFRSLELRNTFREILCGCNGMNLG
row,Binder,MC3R IC50 [nM]
1,B1,73.3
2,B2,98.8
3,B3,> 50000
4,B4,> 50000
5,B5,27.6
6,B6,51.1
7,B7,62.8
8,B8,> 50000
9,B9,1630
10,B10,> 50000
11,B11,91.6
12,B12,77.5
13,B13,224
14,B14,78.1
15,B15,67.8
16,B16,66.2
17,B17,66.5
18,B18,13
19,B19,1400
20,B20,80.9
21,B21,260
22,B22,149
23,B23,39.9
24,B24,4480

# Molecular target: human recombinant MC4R (CHO-K1/Gα15 stable cell line, GenScript) (human, UniProt P32245 1-332)
# Test: cell-based or functional assay
# Chain of human recombinant MC4R (CHO-K1/Gα15 stable cell line, GenScript) (P32245 whole entry): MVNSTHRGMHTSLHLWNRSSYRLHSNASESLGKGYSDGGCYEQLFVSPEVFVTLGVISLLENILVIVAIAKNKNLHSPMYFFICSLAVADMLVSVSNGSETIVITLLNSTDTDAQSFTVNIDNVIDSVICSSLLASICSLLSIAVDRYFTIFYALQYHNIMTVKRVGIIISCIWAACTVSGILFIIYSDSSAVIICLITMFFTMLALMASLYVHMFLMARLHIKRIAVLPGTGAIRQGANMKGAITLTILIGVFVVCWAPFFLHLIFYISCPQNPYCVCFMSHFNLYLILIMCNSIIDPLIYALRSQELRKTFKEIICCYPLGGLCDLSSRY
row,Binder,MC4R IC50 [nM]
1,B1,33.5
2,B2,39.3
3,B3,183
4,B4,122
5,B5,21.8
6,B6,101
7,B7,67.1
8,B8,122
9,B9,84.1
10,B10,40.3
11,B11,36
12,B12,96.2
13,B13,80.9
14,B14,39.8
15,B15,31.9
16,B16,28.7
17,B17,23.1
18,B18,44.4
19,B19,16.4
20,B20,17.9
21,B21,67.6
22,B22,67
23,B23,75.1
24,B24,242

# Molecular target: human recombinant MC5R (CHO-K1/Ga15 stable cell line, GenScript) (human, UniProt P33032 1-325)
# Test: cell-based or functional assay
# Chain of human recombinant MC5R (CHO-K1/Ga15 stable cell line, GenScript) (P33032 whole entry): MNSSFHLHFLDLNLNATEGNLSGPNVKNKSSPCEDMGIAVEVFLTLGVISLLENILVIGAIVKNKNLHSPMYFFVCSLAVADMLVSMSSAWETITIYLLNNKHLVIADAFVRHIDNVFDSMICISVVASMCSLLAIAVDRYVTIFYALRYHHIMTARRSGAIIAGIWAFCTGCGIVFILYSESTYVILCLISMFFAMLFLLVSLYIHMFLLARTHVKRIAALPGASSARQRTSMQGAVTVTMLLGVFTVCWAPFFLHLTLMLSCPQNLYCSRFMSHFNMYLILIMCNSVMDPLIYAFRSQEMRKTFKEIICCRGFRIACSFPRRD
row,Binder,MC5R IC50 [nM]
1,B1,107
2,B2,94.8
3,B3,48.8
4,B4,195
5,B5,40.4
6,B6,150
7,B7,99.6
8,B8,195
9,B9,376
10,B10,191
11,B11,70.2
12,B12,98.9
13,B13,122
14,B14,120
15,B15,82.3
16,B16,79.7
17,B17,69.6
18,B18,167
19,B19,> 10000
20,B20,41.9
21,B21,319
22,B22,79.8
23,B23,64
24,B24,234
